This is an account of results in patent US7033991.

As usually defined, the Ki is the dissociation constant of the complex between target and ligand, obtained from inhibition or displacement.

Conditions in all cases: modification not given
The target of test [1] is T1, Furin (recombinant, truncated) (mouse), P23188.
T1 chain: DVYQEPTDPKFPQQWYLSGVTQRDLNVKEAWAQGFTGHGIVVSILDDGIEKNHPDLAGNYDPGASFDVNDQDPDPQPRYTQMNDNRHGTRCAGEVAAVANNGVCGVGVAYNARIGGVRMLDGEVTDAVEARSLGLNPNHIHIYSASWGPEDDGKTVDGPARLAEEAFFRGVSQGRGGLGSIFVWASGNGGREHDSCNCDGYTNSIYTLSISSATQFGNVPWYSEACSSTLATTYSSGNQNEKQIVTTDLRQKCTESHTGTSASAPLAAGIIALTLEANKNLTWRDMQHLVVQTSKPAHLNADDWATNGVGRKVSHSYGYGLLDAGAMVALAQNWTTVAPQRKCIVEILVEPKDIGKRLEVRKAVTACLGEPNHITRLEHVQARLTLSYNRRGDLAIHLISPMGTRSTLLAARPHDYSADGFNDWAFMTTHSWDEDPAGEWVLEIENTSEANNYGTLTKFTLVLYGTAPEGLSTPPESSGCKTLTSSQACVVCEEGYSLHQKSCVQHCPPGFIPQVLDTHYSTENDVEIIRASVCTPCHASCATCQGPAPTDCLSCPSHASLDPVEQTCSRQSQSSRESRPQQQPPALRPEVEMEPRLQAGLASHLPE

Test [2] addresses T2, PACE4, P29122.
T2 chain: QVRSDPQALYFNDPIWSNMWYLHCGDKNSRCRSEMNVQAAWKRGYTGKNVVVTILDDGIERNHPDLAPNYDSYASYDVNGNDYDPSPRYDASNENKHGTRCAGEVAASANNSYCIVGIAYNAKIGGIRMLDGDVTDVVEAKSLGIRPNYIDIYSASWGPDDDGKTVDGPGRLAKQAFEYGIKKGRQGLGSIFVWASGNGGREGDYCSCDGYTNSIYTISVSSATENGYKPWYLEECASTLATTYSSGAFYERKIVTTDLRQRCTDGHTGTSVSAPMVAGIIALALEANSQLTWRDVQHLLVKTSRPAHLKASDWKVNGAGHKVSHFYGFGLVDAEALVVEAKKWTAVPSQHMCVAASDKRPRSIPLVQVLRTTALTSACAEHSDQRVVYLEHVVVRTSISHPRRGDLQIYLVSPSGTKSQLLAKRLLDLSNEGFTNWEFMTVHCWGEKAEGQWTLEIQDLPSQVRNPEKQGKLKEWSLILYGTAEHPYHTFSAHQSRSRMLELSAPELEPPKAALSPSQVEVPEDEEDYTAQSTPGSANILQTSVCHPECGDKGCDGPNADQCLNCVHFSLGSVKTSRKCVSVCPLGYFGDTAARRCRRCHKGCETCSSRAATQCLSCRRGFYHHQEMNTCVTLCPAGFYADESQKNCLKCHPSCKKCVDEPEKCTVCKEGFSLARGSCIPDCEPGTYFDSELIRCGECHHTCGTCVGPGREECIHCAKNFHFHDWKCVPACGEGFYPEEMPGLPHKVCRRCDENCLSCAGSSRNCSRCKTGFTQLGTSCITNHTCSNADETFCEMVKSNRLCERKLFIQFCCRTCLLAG

Test [3] concerns the target T3, PC1, P29120.
T3 chain: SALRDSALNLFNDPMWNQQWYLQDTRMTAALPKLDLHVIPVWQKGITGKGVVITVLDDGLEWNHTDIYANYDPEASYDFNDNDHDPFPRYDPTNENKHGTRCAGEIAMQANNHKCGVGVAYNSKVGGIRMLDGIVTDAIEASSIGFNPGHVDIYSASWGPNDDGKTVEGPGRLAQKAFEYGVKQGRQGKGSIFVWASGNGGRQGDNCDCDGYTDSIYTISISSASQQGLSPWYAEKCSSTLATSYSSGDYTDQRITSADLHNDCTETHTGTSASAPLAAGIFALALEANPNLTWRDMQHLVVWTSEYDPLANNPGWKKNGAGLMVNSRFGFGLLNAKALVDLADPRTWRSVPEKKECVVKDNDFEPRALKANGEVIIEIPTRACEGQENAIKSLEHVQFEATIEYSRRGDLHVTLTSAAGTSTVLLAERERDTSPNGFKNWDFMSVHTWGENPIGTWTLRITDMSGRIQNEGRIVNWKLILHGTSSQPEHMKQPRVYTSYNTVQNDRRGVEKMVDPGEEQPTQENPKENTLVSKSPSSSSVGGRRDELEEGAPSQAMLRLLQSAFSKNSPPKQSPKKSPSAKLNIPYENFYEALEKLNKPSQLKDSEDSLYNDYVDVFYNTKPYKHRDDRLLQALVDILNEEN

The target in test [4] is T4, PC2, P16519.
T4 chain: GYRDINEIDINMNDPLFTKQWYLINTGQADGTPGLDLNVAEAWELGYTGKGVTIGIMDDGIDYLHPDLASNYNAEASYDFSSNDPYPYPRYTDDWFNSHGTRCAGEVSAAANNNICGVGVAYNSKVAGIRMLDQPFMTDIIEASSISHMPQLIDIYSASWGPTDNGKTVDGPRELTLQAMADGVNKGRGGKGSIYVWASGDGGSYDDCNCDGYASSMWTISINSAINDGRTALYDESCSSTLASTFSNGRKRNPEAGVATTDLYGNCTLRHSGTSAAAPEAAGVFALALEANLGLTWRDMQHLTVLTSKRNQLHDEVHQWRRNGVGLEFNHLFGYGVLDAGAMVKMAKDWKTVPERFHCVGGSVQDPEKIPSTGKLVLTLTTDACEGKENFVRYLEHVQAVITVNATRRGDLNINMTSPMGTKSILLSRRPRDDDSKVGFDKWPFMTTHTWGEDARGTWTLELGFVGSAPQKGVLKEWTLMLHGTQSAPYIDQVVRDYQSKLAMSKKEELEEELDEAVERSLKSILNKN

Test [5] concerns the target T1, Furin (recombinant, truncated) (mouse), ….
Test [6] concerns the target T2, PACE4, P29122.
In test [7] the target is T1, Furin (recombinant, truncated) (mouse), ….
In test [8] the target is T3, PC1, P29120.
The target in test [9] is T1, Furin (recombinant, truncated) (mouse), ….
In test [10] the target is T2, PACE4, P29122.
The target in test [11] is T3, PC1, P29120.
For test [12], the target named is T4, PC2, P16519.
In test [13] the target is T1, Furin (recombinant, truncated) (mouse), ….
In test [14] the target is T4, PC2, P16519.
The target in test [15] is T1, Furin (recombinant, truncated) (mouse), ….
Test [16] concerns the target T5, PC7, Q16549.
T5 chain: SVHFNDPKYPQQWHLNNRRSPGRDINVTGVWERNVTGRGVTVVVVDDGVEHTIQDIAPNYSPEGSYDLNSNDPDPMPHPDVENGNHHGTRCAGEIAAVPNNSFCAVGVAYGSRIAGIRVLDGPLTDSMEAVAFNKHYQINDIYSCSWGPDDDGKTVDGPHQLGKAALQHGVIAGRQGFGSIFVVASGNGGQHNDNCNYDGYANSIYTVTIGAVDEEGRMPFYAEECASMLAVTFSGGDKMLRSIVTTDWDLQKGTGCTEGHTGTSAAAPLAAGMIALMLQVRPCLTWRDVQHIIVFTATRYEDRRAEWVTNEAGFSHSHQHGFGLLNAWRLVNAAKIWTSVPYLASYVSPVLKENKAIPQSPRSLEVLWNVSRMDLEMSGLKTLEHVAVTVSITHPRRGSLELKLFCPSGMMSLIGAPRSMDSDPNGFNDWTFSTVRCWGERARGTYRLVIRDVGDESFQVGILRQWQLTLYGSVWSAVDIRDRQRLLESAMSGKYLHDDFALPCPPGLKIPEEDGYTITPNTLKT

In test [17] the target is T1, Furin (recombinant, truncated) (mouse), ….
Test [18] deals with T4, PC2, P16519.
Test [19] deals with T2, PACE4, P29122.
The target of test [20] is T1, Furin (recombinant, truncated) (mouse), ….
Test [21] addresses T3, PC1, P29120.
For test [22], the target named is T1, Furin (recombinant, truncated) (mouse), ….
Test [23] has as its target T4, PC2, P16519.

Like-named read-outs stand apart in the source and are kept apart here. No end group written: not given here.

Take RRRRRRR [Hepta-L-arginine]: the Ki in test [1] worked out at 0.068 µM; in test [2], 0.24 µM; in test [3], 5.2 µM.

Regarding Ac-HHKRRR-NH2 [Ac-HHKRRR-NH2], the Ki in [4] turned out to be 235 µM; in test [5], 13.2 µM.

As to RRRR [Tetra-L-arginine], the Ki in test [6] is over 200 µM; in test [7], 6.4 µM; in test [8] it was over 200 µM.

In the case of RRRRR [Penta-L-arginine], the Ki in test [9] worked out at 0.99 µM; in test [10] it was 0.98 µM; in test [11], 14 µM.

Regarding Ac-MHKRRR-NH2 [Ac-MHKRRR-NH2], the figures for the Ki in test [12] and in [13] were 216 µM and 10.3 µM, respectively.

Regarding Ac-MRKRRR-NH2 [Ac-MRKRRR-NH2], the Ki in test [14] amounted to 1500 µM; in test [15], 2.3 µM.

As to QQVAKRRTKR [Furin propeptide fragment], the inhibition constant Ki in test [16] turned out to be 0.5 µM.

With LLRVKR, the inhibition constant Ki in [17] is 0.42 µM; in [18] it was 3.7 µM.

For the molecule RRRRRR [Hexa-L-arginine], the Ki in test [19] came to 0.52 µM; in [20] it was 0.114 µM; in test [21], 3.9 µM.

With LLRVKR-NH2 [LLRVKR-NH2], the Ki was found to be 0.8 µM in test [22] and 2.3 µM in [23].
